# B1: HSA-18 (designed binder)
# chain: MIPRGLSEAKPATPEIQEIVDKVKPQLEEKTNETYGKLEAVQYKTQVLADWWQAKWPHSTNYYIKVRAGDNKYMHLKVFNGPYKVHQSSGGADRVLTGYQVDKNKDDELTGFHHHHHH
# notes: also called HSA-18 monomer
# B2: AVA04-236 (designed binder)
# chain: MIPRGLSEAKPATPEIQEIVDKVKPQLEEKTNETYGKLEAVQYKTQVLAKEHGPDSWWSTNYYIKVRAGDNKYMHLKVFNGPQEKNQWVEEADRVLTGYQVDKNKDDELTGFHHHHHH
# B3: AVA04-269 (designed binder)
# chain: MIPRGLSEAKPATPEIQEIVDKVKPQLEEKTNETYGKLEAVQYKTQVLAKEYGPEEWWSTNYYIKVRAGDNKYMHLKVFNGPGDYEQVLIHADRVLTGYQVDKNKDDELTGFHHHHHH
# B4: HSA-41 (designed binder)
# chain: MIPRGLSEAKPATPEIQEIVDKVKPQLEEKTNETYGKLEAVQYKTQVLANFFQRRWPGSTNYYIKVRAGDNKYMHLKVFNGPWKFRNTDRGADRVLTGYQVDKNKDDELTGFHHHHHH
# notes: Made in E. coli; also called AVA-41; AFFIMER® XT “AVA-41”
# B5: AVA04-251 XT60 (designed binder)
# chain: MIPRGLSEAKPATPEIQEIVDKVKPQLEEKTNETYGKLEAVQYKTQVLAREGRQDWVLSTNYYIKVRAGDNKYMHLKVFNGPWVPFPHQQLADRVLTGYQVDKNKDDELTGFAEAAAKEAAAKEAAAKEAAAKEAAAKEAAAKMIPRGLSEAKPATPEIQEIVDKVKPQLEEKTNETYGKLEAVQYKTQVLAREGRQDWVLSTNYYIKVRAGDNKYMHLKVFNGPWVPFPHQQLADRVLTGYQVDKNKDDELTGFAEAAAKEAAAKEAAAKEAAAKEAAAKEAAAKMIPRGLSEAKPATPEIQEIVDKVKPQLEEKTNETYGKLEAVQYKTQVLADWWQAKWPHSTNYYIKVRAGDNKYMHLKVFNGPYKVHQSSGGADRVLTGYQVDKNKDDELTGFHHHHHH
# notes: Made in E. coli and purified on NiNTA
# B6: AVA04-261 (designed binder)
# chain: MIPRGLSEAKPATPEIQEIVDKVKPQLEEKTNETYGKLEAVQYKTQVLAHAYGPRDWDSTNYYIKVRAGDNKYMHLKVFNGPPADHVLEEAADRVLTGYQVDKNKDDELTGFHHHHHH
# B7: AVA04-251 XT15 (designed binder)
# chain: MIPRGLSEAKPATPEIQEIVDKVKPQLEEKTNETYGKLEAVQYKTQVLAREGRQDWVLSTNYYIKVRAGDNKYMHLKVFNGPWVPFPHQQLADRVLTGYQVDKNKDDELTGFAEAAAKEAAAKEAAAKEAAAKEAAAKEAAAKMIPRGLSEAKPATPEIQEIVDKVKPQLEEKTNETYGKLEAVQYKTQVLANFFQRRWPGSTNYYIKVRAGDNKYMHLKVFNGPWKFRNTDRGADRVLTGYQVDKNKDDELTGFAEAAAKEAAAKEAAAKEAAAKEAAAKEAAAKMIPRGLSEAKPATPEIQEIVDKVKPQLEEKTNETYGKLEAVQYKTQVLAREGRQDWVLSTNYYIKVRAGDNKYMHLKVFNGPWVPFPHQQLADRVLTGYQVDKNKDDELTGFHHHHHH
# B8: AVA04-251 XT14 (designed binder)
# chain: MIPRGLSEAKPATPEIQEIVDKVKPQLEEKTNETYGKLEAVQYKTQVLAREGRQDWVLSTNYYIKVRAGDNKYMHLKVFNGPWVPFPHQQLADRVLTGYQVDKNKDDELTGFAEAAAKEAAAKEAAAKEAAAKEAAAKEAAAKMIPRGLSEAKPATPEIQEIVDKVKPQLEEKTNETYGKLEAVQYKTQVLAREGRQDWVLSTNYYIKVRAGDNKYMHLKVFNGPWVPFPHQQLADRVLTGYQVDKNKDDELTGFAEAAAKEAAAKEAAAKEAAAKEAAAKEAAAKMIPRGLSEAKPATPEIQEIVDKVKPQLEEKTNETYGKLEAVQYKTQVLANFFQRRWPGSTNYYIKVRAGDNKYMHLKVFNGPWKFRNTDRGADRVLTGYQVDKNKDDELTGFHHHHHH
# B9: AVA04-251 XT61 (designed binder)
# chain: MIPRGLSEAKPATPEIQEIVDKVKPQLEEKTNETYGKLEAVQYKTQVLAREGRQDWVLSTNYYIKVRAGDNKYMHLKVFNGPWVPFPHQQLADRVLTGYQVDKNKDDELTGFAEAAAKEAAAKEAAAKEAAAKEAAAKEAAAKMIPRGLSEAKPATPEIQEIVDKVKPQLEEKTNETYGKLEAVQYKTQVLADWWQAKWPHSTNYYIKVRAGDNKYMHLKVFNGPYKVHQSSGGADRVLTGYQVDKNKDDELTGFAEAAAKEAAAKEAAAKEAAAKEAAAKEAAAKMIPRGLSEAKPATPEIQEIVDKVKPQLEEKTNETYGKLEAVQYKTQVLAREGRQDWVLSTNYYIKVRAGDNKYMHLKVFNGPWVPFPHQQLADRVLTGYQVDKNKDDELTGFHHHHHH
# notes: as for B5
# Columns and labels:
# [1] = target: T1, human serum albumin (HSA) (human, UniProt P02768 25-609); experiment: SPR (Biacore) kinetic analysis, pH 6.0 and pH 7.4 running buffer; the pH for each end is not stated; lower end of the range; pH 6.0 or pH 7.4 not told
# T1 construct: mature; also called HuSA; HSA (Sigma)
# T1 sequence (P02768 25-609): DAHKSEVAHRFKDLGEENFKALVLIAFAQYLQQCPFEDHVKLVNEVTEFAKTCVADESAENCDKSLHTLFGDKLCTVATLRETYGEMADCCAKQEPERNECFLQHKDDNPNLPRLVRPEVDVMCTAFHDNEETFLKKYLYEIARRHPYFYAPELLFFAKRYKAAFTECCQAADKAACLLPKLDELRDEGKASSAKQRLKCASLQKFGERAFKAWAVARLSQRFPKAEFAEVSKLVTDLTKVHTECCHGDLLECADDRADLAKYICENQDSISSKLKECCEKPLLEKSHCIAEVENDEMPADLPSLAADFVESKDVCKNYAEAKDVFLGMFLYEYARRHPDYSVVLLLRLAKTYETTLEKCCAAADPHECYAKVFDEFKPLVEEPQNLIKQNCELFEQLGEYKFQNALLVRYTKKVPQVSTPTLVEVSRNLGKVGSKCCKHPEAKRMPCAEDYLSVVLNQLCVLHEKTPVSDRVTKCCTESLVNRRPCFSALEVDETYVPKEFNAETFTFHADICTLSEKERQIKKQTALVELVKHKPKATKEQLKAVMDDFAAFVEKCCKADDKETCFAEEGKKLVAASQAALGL
# [2] = target: T2, human PD-L1-Fc (R&D Systems) (human, UniProt Q9NZQ7 19-239); experiment: SPR (Biacore T200), PD-L1-Fc amine-coupled to CM5 chip, AFFIMER as analyte, 1:1 Langmuir fit
# T2 construct: Bought from R&D Systems; also called rhPD-L1-Fc; human PD-L1 Fc chimeric protein; not shown: the Fc part of the bought chimera is not described
# T2 sequence (Q9NZQ7 19-239): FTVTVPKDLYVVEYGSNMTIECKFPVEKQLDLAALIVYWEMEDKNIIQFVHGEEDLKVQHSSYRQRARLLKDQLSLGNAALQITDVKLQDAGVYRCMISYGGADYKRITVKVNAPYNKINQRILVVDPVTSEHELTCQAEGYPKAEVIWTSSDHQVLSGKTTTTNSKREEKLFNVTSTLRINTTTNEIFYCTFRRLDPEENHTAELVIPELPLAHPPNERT
# Experimental: To analyze PD-L1-Fc binding kinetics, a Biacore T200 kinetic analysis was performed using running buffer HBS-EP+ and series S sensor CM5 (GE Healthcare) chip Fc2 immobilized with PD-L1-Fc (R&D Systems) in 10 mM sodium acetate pH 4.0 using amine coupling reagents (GE Healthcare). The concentration titration of ILF AFFIMER® proteins was run as analyte at a flow rate of 30 μl/min. […] with 3 mM NaOH (GE healthcare) for 20 seconds at 20 μl/min flow rate. The Fc2-1 data blank was subtracted and fit to a 1:1 Langmuir binding model (Biacore evaluation software; GE) to calculate an apparent KD value.
# [3] = target: T3, mouse serum albumin (MSA) (mouse, UniProt P07724 25-608); experiment: binding ELISA on coated MSA, pH 7.4 by the legend (the panel's title prints pH 7)
# [4] = target: T3, mouse serum albumin (MSA); experiment: SPR (Biacore) kinetic analysis, MSA, pH 6.0; reference HSA-18 monomer
# [5] = target: PD-L1 (PD-1/PD-L1 blockade Bioassay, Promega) (UniProt Q9NZQ7 19-290, limits assumed); experiment: cell-based or functional assay
# Chain of PD-L1 (PD-1/PD-L1 blockade Bioassay, Promega) (Q9NZQ7 19-290 limits assumed): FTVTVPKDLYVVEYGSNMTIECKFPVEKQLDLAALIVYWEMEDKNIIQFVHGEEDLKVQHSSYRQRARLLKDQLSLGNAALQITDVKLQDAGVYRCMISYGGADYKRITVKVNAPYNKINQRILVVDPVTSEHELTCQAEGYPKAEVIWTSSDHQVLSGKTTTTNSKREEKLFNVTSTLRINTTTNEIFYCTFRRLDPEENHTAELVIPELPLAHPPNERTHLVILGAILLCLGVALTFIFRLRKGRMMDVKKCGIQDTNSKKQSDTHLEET
binder,measurement,setting,value
B1,Kd,[1],109 to 152 nM
B2,Kd,[2],5.43 nM
same,koff,[2],0.00977 s⁻¹
same,kon,[2],1.8e+06 M⁻¹ s⁻¹
B3,Kd,[2],1.68 nM
same,koff,[2],0.00345 s⁻¹
same,kon,[2],2.05e+06 M⁻¹ s⁻¹
B4,EC50 (read off the curve),[3],~5 nM
B5,fold of the monomer serum albumin binding AFFIMER affinity,[4],≤ 2 fold
B6,Kd,[2],2.95 nM
same,koff,[2],0.0109 s⁻¹
same,kon,[2],3.68e+06 M⁻¹ s⁻¹
B7,"half-maximal concentration in the PD-1/PD-L1 blockade Bioassay (Promega), fold change relative to assay buffer; the table's head prints IC50 (nM), the text calls it EC50",[5],434 nM
B8,"half-maximal concentration in the PD-1/PD-L1 blockade Bioassay (Promega), fold change relative to assay buffer; the table's head prints IC50 (nM), the text calls it EC50",[5],176 nM
B9,fold of the monomer serum albumin binding AFFIMER affinity,[4],≤ 2 fold
